Results published in PMC9293207, “Impact of C‐terminal truncations in the Arabidopsis Rab escort protein (REP) on REP–Rab interaction and plant fertility” (The Plant Journal, 2021).

B1: GST‐Rab‐D1 (natural protein)
chain: not shown
notes: Rab‐D1 of Arabidopsis thaliana, cloned from Col‐0 leaf cDNA into pGEX4T1 cut with SmaI; unprenylated; Used in the presence of GDP; source: E. coli BL21(DE3)pLysS, purified (Glutathione‐Sepharose 4B, Superdex 75)
B2: GST‐Rab‐F2b (natural protein, Arabidopsis thaliana, UniProt Q9SN68 1-200, looked up)
chain: MAAAGNKSINAKLVLLGDVGAGKSSLVLRFVKDQFVEFQESTIGAAFFSQTLAVNDATVKFEIWDTAGQERYHSLAPMYYRGAAAAIIVFDVTNQASFERAKKWVQELQAQGNPNMVMALAGNKSDLLDARKVTAEDAQTYAQENGLFFMETSAKTATNVKEIFYEIARRLPRVQPTENPTGMVLPDRAMDRAVSSSCCA
notes: Rab‐F2b of Arabidopsis thaliana, cloned from Col‐0 leaf cDNA into pGEX4T1 cut with SmaI; unprenylated; Used in the presence of GDP; source: E. coli BL21(DE3)pLysS, purified (Glutathione‐Sepharose 4B, Superdex 75)
B3: GST‐Rab‐E1d (natural protein)
chain: not shown
notes: Rab‐E1d of Arabidopsis thaliana, cloned from Col‐0 leaf cDNA into pGEX4T1 cut with SmaI; unprenylated; Used in the presence of GDP; source: E. coli BL21(DE3)pLysS, purified (Glutathione‐Sepharose 4B, Superdex 75)
B4: Rab‐E1d cleaved from its GST tag (natural protein)
chain: not shown
notes: Rab‐E1d of Arabidopsis thaliana, from GST‐Rab‐E1d (pGEX4T1, SmaI) after thrombin cleavage; A few vector‐derived residues probably remain at the end after thrombin cleavage; also called E1d no tag; untagged Rab‐E1d

How the values were obtained:
Conditions in all cases: both partners purified
[1] = target: T1, REPΔC‐His, truncated form of REP lacking 30 C‐terminal amino acids (Arabidopsis thaliana, UniProt Q8LLD4 1-533); experiment: SEC; purified proteins diluted to 65 nM in 200 μl Tris 20 mM pH 7.5, 100 mM NaCl, 10 mM MgCl2, 1 mM DTT, 1.5 mM GDP, incubated 4 h at room temperature; Superdex 75 10/300 GL; fractions resolved by SDS‐PAGE
T1 construct: Rab escort protein (REP) of Arabidopsis thaliana lacking 30 C‐terminal amino acids; cloned from pGWB551‐REP with primers BP‐rep‐F and BP‐rep‐R into pET301/CT‐DEST; Gateway cloning (pDONR201, pET301/CT‐DEST) may add linker residues between REP and the His tag; also called truncated mutant; truncated REP version; source: E. coli BL21(DE3)pLysS, purified (Ni‐NTA agarose)
T1 sequence (looked up): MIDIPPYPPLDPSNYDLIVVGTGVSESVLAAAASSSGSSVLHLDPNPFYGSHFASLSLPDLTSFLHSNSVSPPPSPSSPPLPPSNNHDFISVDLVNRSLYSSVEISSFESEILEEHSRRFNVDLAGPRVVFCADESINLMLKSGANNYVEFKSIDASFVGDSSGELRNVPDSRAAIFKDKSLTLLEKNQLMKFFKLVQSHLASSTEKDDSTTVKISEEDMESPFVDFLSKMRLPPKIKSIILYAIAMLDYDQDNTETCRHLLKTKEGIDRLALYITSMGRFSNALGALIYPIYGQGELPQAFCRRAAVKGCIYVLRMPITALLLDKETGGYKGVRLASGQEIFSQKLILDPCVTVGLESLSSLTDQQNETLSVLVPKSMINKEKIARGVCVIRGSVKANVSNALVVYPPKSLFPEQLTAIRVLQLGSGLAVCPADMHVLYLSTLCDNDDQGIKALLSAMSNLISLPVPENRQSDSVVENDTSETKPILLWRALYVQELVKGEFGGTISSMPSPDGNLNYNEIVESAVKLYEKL

[2] = target: T2, Rab escort protein (REP), recombinant REP‐His (Arabidopsis thaliana, UniProt Q8LLD4 1-563); experiment: HDX-MS; complexes of REP‐His with GST‐Rab from SEC against each protein alone (apo); 20 mM Tris‐DCl, 100 mM NaCl, 5 mM MgCl2, 1 mM GDP pH 7.5 in D2O; 10 sec, 1 min, 60 min; pepsin digestion; triplicate
T2 construct: Rab escort protein (REP) of Arabidopsis thaliana, wild type; Plasmid was a gift (Dr. Michal Hala); HDX‐MS peptides are reported from region 1–14 to beyond amino acid 534, so the whole protein was probably present; also called WT REP; AtREP; source: E. coli BL21(DE3)pLysS, purified (Ni‐NTA agarose, HiTrapQ, Superdex 75)
T2 sequence (looked up): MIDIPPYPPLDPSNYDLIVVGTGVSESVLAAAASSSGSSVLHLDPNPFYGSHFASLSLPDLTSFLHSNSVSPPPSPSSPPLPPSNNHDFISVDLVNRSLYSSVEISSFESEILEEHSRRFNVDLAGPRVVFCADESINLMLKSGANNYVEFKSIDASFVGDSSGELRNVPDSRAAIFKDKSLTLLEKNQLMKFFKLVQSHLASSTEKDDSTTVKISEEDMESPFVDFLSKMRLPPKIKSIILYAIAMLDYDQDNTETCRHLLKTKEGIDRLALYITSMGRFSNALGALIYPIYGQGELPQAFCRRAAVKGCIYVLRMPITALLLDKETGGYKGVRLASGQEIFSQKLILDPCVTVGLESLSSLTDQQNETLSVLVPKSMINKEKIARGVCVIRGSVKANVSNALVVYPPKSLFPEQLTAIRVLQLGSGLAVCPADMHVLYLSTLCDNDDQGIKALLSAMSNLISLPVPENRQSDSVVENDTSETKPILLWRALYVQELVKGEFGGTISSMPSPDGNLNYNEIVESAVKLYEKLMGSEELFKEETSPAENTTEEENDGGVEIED

[3] = target: T2, Rab escort protein (REP), recombinant …; experiment: SEC; purified proteins diluted to 65 nM in 200 μl Tris 20 mM pH 7.5, 100 mM NaCl, 10 mM MgCl2, 1 mM DTT, 1.5 mM GDP, incubated 4 h at room temperature; Superdex 75 10/300 GL; fractions resolved by SDS‐PAGE

Binder | binding result [1] | binding result [2] | binding result [3]
B1 | binds | binds | 
B2 |  | binds | 
B3 | binds |  | binds
B4 |  |  | binds
